Results published in US9289506B2, “Surface binding of nanoparticle based drug delivery to tissue” (Massachusetts Institute of Technology, priority 2013, dated 2016).
Where “and” joins values, the source holds several entries; their conditions need not be identical. Identical values can stand only once.

Experiments:
[1] = Net charge of Avidin estimated from reported electrokinetic zeta potential; format: physicochemical; settings: Grahame equation from zeta potential, spherical shape diameter ~7 nm
From the text: The zeta potential of Avidin molecules in dilute solution of DI water at pH 5 has been reported to be 10 mV (Dougherty et al., Langmuir, 2009). Using Grahame Equation of electrokinetics (Grodzinsky et al., New York: Garland Science, 2011) that related zeta potential to particle surface charge density, and assuming that Avidin attains a spherical shape (diameter ˜7 nm), the zeta potential of 10 mV corresponds to an effective net molecular charge of ˜+7.3.

[2] = Competitive binding of FITC-Avidin and unlabeled Avidin in cartilage (binding isotherm fit); set-up: species or system bovine; settings: best fit of binding isotherm to FIG. 13 data
Method: To test this hypothesis, competitive binding experiments were performed in which 3 mm diameter cartilage disks were equilibrated for 3 days in 300 μl buffer containing a fixed amount of (fluorescently labeled) FITC-Avidin (1 μM) and graded amounts of unlabeled Avidin (0, 10, 76, 100, and 203 μM). The disks were split into half disks to reduce the time needed for equilibration, which was performed in 96 well plates at 37° C. The uptake ratio, RU, was measured and plotted versus the total bath concentration of Avidin (labeled+unlabeled, FIG. 13), where RU is defined as the total concentration of Avidin inside the cartilage (bound (CB) plus free (CF)) per intra-tissue water weight, normalized to the Avidin concentration in the equilibration bath (CBath):
Labeled and unlabeled Avidin were held to partition into the cartilage identically. At very low concentration of the labeled Avidin (≦1 μM), a high uptake of ˜120 was observed. When unlabeled Avidin was added to the bath, both species (labeled and unlabeled) could compete for the same (constant) number of binding sites available in the tissue (site density NT). […] To model the data of FIG. 13, a first-order, bimolecular, reversible reaction was produced to describe binding of Avidin to a single dominant binding species within cartilage. A theoretical model was adopted, (Garcia et al., Arch Biochem Biophys, 2003) previously used for characterizing the binding of soluble insulin like growth factor-1 (IGF-1) to IGF-binding proteins (IGF-BPs) that are uniformly enmeshed and fixed within cartilage matrix. According to this model, the equilibrium molar concentration of free solute (CF), bound solute (CB), intra-tissue binding site density (NT) and the equilibrium dissociation constant (KEQ) are related by the binding isotherm:
[formula] which is similar in form to a Langmuir adsorption isotherm. […]
[formula] […] Thus, K is determined by both steric hindrance and electrostatic (Donnan) interactions. […]

[3] = One-way diffusion of solutes into cartilage half disks in transport chamber, confocal microscopy imaging; format: in vitro ADME, bovine; settings: normal cartilage
From the text: Solute Types: Two types of 15 nm diameter (MW˜300 kDa) Quantum Dots (QD) were used: (i) positively charged, and (ii) charge-neutral; same concentration. Transport of FITC (MW˜300 Da, diam˜0.9 nm) and dextrans (Dex) conjugated with FITC (Sigma Aldrich) of different MW (˜8 kDa, diam˜4.3 nm; ˜40 kDa, diam˜10 nm) were also investigated.
Transport Studies: A special PMMA transparent transport chamber was designed to allow diffusion of solutes into only one side (superficial zone) of the cartilage disk. The chamber was treated with Casein to block non-specific binding of solutes to chamber surfaces. The equilibrated cartilage disks were then cut into halves and placed in the middle of the ‘slot chambers’ of the fixture. The chamber side facing the superficial zone was filled with ˜45 μl of solute-PBS solution; the other side was filled with 1×PBS alone. […]
Using a scalpel, a slice (100-200 μm thick) was then cut from the center of each disk (FIG. 1B). […] Appropriate filters were chosen to eliminate auto-fluorescence of cartilage at the settings used for imaging. […] To ensure proper image comparison, solute concentrations were chosen such that the FITC concentration in each solution was identical, thereby giving equal fluorescence intensities.

## Avidin: positively charged globular glycosylated tetrameric protein, pI 10.5, 66 kDa, diameter ~7 nm (Invitrogen); SEQ ID NO 1
[1]
  effective net molecular charge: ~+7.3
[2]
  equilibrium partition coefficient K: ~6
[2]; read-out: equilibrium dissociation constant KEQ
  Kd: 150 µM and ~150 µM
[3]
  time to penetrate the full thickness (1 mm) of the cartilage explant: ≤ 24 h
